# The DeepSol protein solubility set
# Experiment: soluble on expression in E. coli; label from the status in PepcDB or PDB records
row,Sequence,soluble on expression in E. coli
1,MAHHHHHHMKSTQSNLNDEEKVMNNNEKIIKNSYGELLSGCIKNKSSDMNTGDVYPCNDKNTKIVSIKNVYNNLYKTSDSLFFNEENEENRMENCIIRNDGRDMENKFSLYINNAENKDDNNMNNNKNDNINDNINDNINDNINDNINDNINDNINDNINNNINDNINNNIYHNQNNNIYHNIYHNNIINDGVIINEHTSHGDRSSFLNNNKNYNISNYTNHGHNINLNEEKNEKVYMHRNENNEKIHYSNNKDYIEKGNEKSVSSKKGEETYTNNSYNIHLKNMDVKNNERDMCKTMVNNSNIKENKKYSNKTIQQEENTEHEYNIINEEEEEHIKLFKNMNLEEIKNVLSKNDASTLKILLCTDNHLGYKENNSIQKKDSFNSFEEILFIAKKLNVDMILNSGDLFHKNKVSEYTLFKSMYIIRKYCHINENDKEMQQDDNINNNIYPNDLNNDDKSVSKAISEDEFCNMYNVQVKEIKNYKYEYYKNEHTLNNRNNIFDDTNDCMSNKSFIQDKNENLYKDDEDNTNGVKLLQRNDEMNNSDHPGEYLNYRNGKKQIKYYNKLKENNNEFFNKLKICSVNQKFKKLIPFYTIHGNHDYPYSYEYISPLDILNISNLINYIGKNNLNNIVVKPILLNKYKSKISIYAVGWMKDERLYRSFENNEVKFILPSDYKNRINILVLHQNRYIRNAYGNNTKNFIKESFIPKFIDLVIWGHEHFSKPYLEESILNSFYNIQLGSSVRTSICPNEYGDKFIGLLEIKNQRFRFLKINLETVRPFEMKDIKLADYELNFKSESVLKEFLHEQTHAILEKIKNNFSHEIKKYFFFKQLFHTKNKLETNTNKKHQTEYNNINICTKEINSHLNDYQDENLYKSLISISKEDINNFYNNLKNEDFYSSTFIHFAFADPYDTFDLLKIKKEVYEKPLLKIKVEYDDVNIINTQLFGSLFINSIANPSEFLSFYRKKIRQRDIYNNNDNNNDNINDNNNNNDHGKNNTNHDTYNNNYNNNRIDEDEGDKDLHNMEYINEYNKVFDILFDYCDIKNKLLILDENVIMDTIQNFILNTNSSFNFNTNVTSDFTSINSMVDKSFKNKVESIEKQMGNMSAENITDAYLTDVLKKIKNTS,not soluble
2,MSLEEPRGINYVELSTDDLGTLTRQMHQLGFQFIGYHRSKPHVQLWLRGQARIIVSEVTEEAGTTSAPVNGTFLRGIGFEVTDSQSAMDRAALLHAEEVPRDQAHDDEVLRGVFAPDGSEVFFHQFDAATPAWIKEFGHDHDEQVSHIDHVNLAQPSNHYDEAVLFYTSLLALHAQSSQDVPSPSGLVRSQVMSSTDGSVRMPLNVSPQPNAEAVAGRGIGSVVEAYPEHVAVACEDIFQAAATALSRGLDFLPVPQNYYEDLDSRFDLDLEFLQRLQENHVLYDRDEHGEFLHFYTSTIGSVFFEMIERRGDYLGFGAPDAPVRLAAQHRKNSQREGHHHHHH,not soluble
3,MAHHHHHHGAYDVARVRGLHPSLGDGWVHFDAPAGMLIPDSVATTVSTAFRRSGASTVGAHPSARRSAAVLDAAREAVADLVNADPGGVVLGADRAVLLSLLAEASSSRAGLGYEVIVSRLDDEANIAPWLRAAHRYGAKVKWAEVDIETGELPTWQWESLISKSTRLVAVNSASGTLGGVTDLRAMTKLVHDVGALVVVDHSAAAPYRLLDIRETDADVVTVNAHAWGGPPIGAMVFRDPSVMNSFGSVSTNPYATGPARLEIGVHQFGLLAGVVASIEYLAALDESARGSRRERLAVSMQSADAYLNRVFDYLMVSLRSLPLVMLIGRPEAQIPVVSFAVHKVPADRVVQRLADNGILAIANTGSRVLDVLGVNDVGGAVTVGLAHYSTMAEVDQLVRALASLG,soluble
4,MVFTPLDVRTIVSLPSCPKCNSEYTYEDGSLLICPECAHEWSADAGSADASDDVKVIKDSTGNVLQDGDTITVIKDLKVKGSSLVVKVGTKVKNIRLVDGDHDIDCKIDGIGAMKLKSEFVRKV,not soluble
5,MAAYRADDDYDFLYKVVLIGDSGVGKSNLLSRFTRNEFSLESKSTIGVEFATRSIHVDEKIVKAQIWDTAGQERYRAITSAYYRGAVGALLVYDVTRHVTFENVERWLKELRDHTEANIVIMLVGNKADLRHLRAVSTEDAKAFAERENTFFMETSALEALNVENAFTEVLSQIYRVASKKALDIGDDHTTLPKGQSINVGSKDDVSEVKKVGCCSS,soluble
6,MSLYKILLADDERIILDGMAGIIEWESLGASLIGKAQNGHEAYEKIVHKQPHIVITDVKMPGMDGLELIKKVSAVSPSVQFIVLSGFGEFEYAKEAMKYGVKHYLLKPCNEQQIISSLEEIIAELKRQDVHKKKTAHLKHELDHIRSFAADQYLEGLIAGVAQLSPPPSLAGKKIRLLILKGEQSIDAAAREALGSALTAVCSSGEWTVLAVEENAAEKVAEVFADRKMAISQAGELRHAGQLFRDTAEASGDLHGSAVISKMIRLIADELGNPNLSLKWAAKDMLFMNPDYLGKLFKQETGEKFSQYVTRVRLEHAMKQMKIRRDVSVSEIAEEIGFGDNPKYFSLVFKKYTGLTPSEFRRKQGGASAGEGHHHHHH,soluble
7,MEVLHKPVLLRESVEFLTENGGKIYVDCTLGGGGHAKEILKKRKDIFLIGIDRDEEAIEIAKENLKEFEGRFSIYKANFKDLDLVLKEEGIDKVDGFLFDLGVSMYQLKGERGFTFQEDQPLDMRMDKEQTLTACKVVNNYPERELIRILKEYGEEKFAVRIAKAIVQRRKKKPIETTGELVDVILSVVPEYYKHGKIHPATRTFQAIRIEVNKELESLKEALEKTPYHFNSKGRLVVITFHSLEDRIVKHFIKEKEKEGIFRIITKKPVTPSEEEIRENPASRSAKLRVAEKI,soluble
8,MIKCIYIVCALNDNTIYSTLHYMEYSIQRGEIYMKIIKRSGSEDIFDAAKIVAAIRKANDSVLDYEKLTADQIEEIASNVETACENMKRSPSVEEIQDMVENQLMNKRAFTVARNYITYRYKRAIVRKSNST,not soluble
9,MSLEKLSHGLVTSRNMIRYKSSQLPERVLQFGEGNFLRGFIDWMIQQMNKQNVFNGRVVAIQPTPHGKVVPKLQEQDSLYTVWLRGIADGETVDHHEVITSISRGLNPYTNWQDVLEVAASPDISVVFSNTTEAGLTYLEEGYDKEKAPLSFPGKLAACLWHRYETLGWGEGSGLVIIPCELVEQNGKVLKELVCRYAKAWNFPQEFFTWLERENEFCHTLVDRIVPGFPSDTADECFERLGYEDILLTVAEPYHLFIIEGSERVRKLLPFNEAGLHVRWNHLEKHRNMKVRVLNGTHTFMFALSYLSGVDTVGEAMADEQLCSFIRKGLFEEIIPCVDAPEQEVTAFAETVLERFENPFLQHRLTDIGLNAVNKFRTRLMPTFNDYVAQTGEAPTYLLFSLAALINYYRGVEEDGPFLIGRRREDSYLIRDDLEVIEAFKVGWQQVNTGKLSLAQLCEDLLSKRELWGVDLSMERKVVDKVAESLQIIVEKGMRQAISGVLNQIGGNNHVHKEGHHHHHH,soluble
10,MLDFEKPLFEIRNKIDSLKESQEKNEVDLQDEIDMLEASLKRETTKVYTNLKPWDRVQIARLPERPTTLDYIPYIFDSFIELHGDRSFRDDPAMIGGIGYLDGKSVTVIGQQRGKDTKDNIYRNFGMAHPEGYRKALRLMKQAEKFNR,not soluble
11,MAKNIPFKLILEKAKDYQADMTRFLRDMVAIPSESCDEKRVVHRIKEEMEKVGFDKVEIDPMGNVLGYIGHGPRLVAMDAHIDTVGIGNIKNWDFDPYEGMETDELIGGRGTSDQEGGMASMVYAGKIIKDLGLEDEYTLLVTGTVQEEDCDGLCWQYIIEQSGIRPEFVVSTEPTDCQVYRGQRGRMEIRIDVQGVSCHGSAPERGDNAIFKMGPILGELQELSQRLGYDEFLGKGTLTVSEIFFTSPSRCAVADSCAVSIDRRLTWGETWEGALDEIRALPAVQKANAVVSMYNYDRPSWTGLVYPTECYFPTWKVEEDHFTVKALVNAYEGLFGKAPVVDKWTFSTNGVSIMGRHGIPVIGFGPGKEPEAHAPNEKTWKSHLVTCAAMYAAIPLSWLATE,soluble
12,MSLKVDQKEEQVQKRLEALDKLTKTLAIVEQYYVDDQNISDLVDKSLSGLLSNLDAHSSFLNEKDFNDMKIQTNGEFGGLGITVGMKDGALTVVSPIEGTPADKAGIKSGDIILKINDEATLGINLNDAVDKMRGKPKTQITLTIFRKGATKPFDVTLTREIIKIESVYAKMIENENILYLRVTNFDKNVVDVASKELKKYPNVKGVILDLRNNPGGLLNQAIGLVNLFVDKGVIVSQKGRIASENQEYKADPKNKISNASLVVLVNGGSASASEIVSGALQDLKRGVIVGENTFGKGSVQQIIPINKTEALRLTIARYYLPSGRTIQAVGVKPDIEVFPGKVNTQEGHHHHHH,soluble
13,MSLGDEWARIRKDGALLIGLEGTFPPYSQLAGGQLQGFEVDFGRALAAQMGVTARFQTMVWDHMLDSLAAGRLDAVINQVVATPARGKRFDFSIPYTYSGLQLVVRKPDLTRFRGARDLAGAHVGVSAGTNYEQWLRDNAPQAHIHLYQDDPTKFDGLRRGEVDAIVINRLAAFNLALKSQGELVPTGRVLAREDACVVLRKGNPRLLAEVNRAIGHLQRDGTLQALSRKWFKADIVSEGHHHHHH,soluble
14,SDEEKKRRAATARRQHLKSAMLQLAVTEIEKEAAAKEVEKQNYLAEHSPPLSLPGSMQELQELSKKLHAKIDSVDEERYDTEVKLQKTNKELEDLSQKLFDLRGKFKRPPLRRVRMSADAMLRALLGSKHKVNMDLR,soluble
15,MLNITEDEIDSISLLNNPLKDPSKRSIIIIDHSRNDRSPILIGLQGFFGTNRSFMNRYFNKVDFISVLEKIAEKAENDGFIIALPDTMTSLYGNQYINSPAVGNYEDFIVSDVLEYLFKRYGKRPVGLFGKSSGGFGAYTLAVRHPDKISGFVDVAGDSGFEYCYLPDFPAAIKYFRRYGVLEWYTYVKSKMNMSPEDMKVVNVLAMSAFYSPDQEAEMGIGLPFDTRTGLLKYDVWDKWRRLDPAFNISNNIDVLKDMAVFMQVGSRDDFHIDIGMEAMHNFLEKNGIVHFFETYDETHFDLDYLYLKSLPLLIELISD,not soluble
16,AHIVYDDVRDLKAIIQALLKLVDEALFDIKPEGIQLVAIDKAHISLIKIELPKEMFKEYDVPEEFKFGFNTQYMSKLLKAAKRKEEIIIDADSPEVVKLTLSGALNRVFNVNNIEVLPPEVPEVNLEFDIKATINASGLKNAIGEIAEVADTLLISGNEEKVVVKGEGENKVEVEFSKDTGSLADIEFNKESSSAYDVEYLNDIISLTKLSDYVKVAFADQKPMQLEFNMEGGGKVTYLLAPKLS,soluble
17,MSLDSSPHSQVNDPLESFNRQMWTINYDYLDPYVVRPVSLFYVGYVPKPVRSGIANFLSNLDEPASMVNNLLMGNGTKAVDHFNRFWINTSFGLLGLIDIASEAGIKKYDDKAFSDAVGHYGVGNGPYLMVPGYGPYTVREVTDVVDGMYFPLAYLNIWAGVGKWALEGMETRAALVSQEALLQDSPDPYSLARDAYLQRQAFKAEIQVDDYDPEEEEYLDEYLNEGEGHHHHHH,soluble
18,MSSTALLPPNTDQVLSRRLHGKAAEKKTGLAAIASKDVDEQSRKLQEYFEFWDRNHENESEEDRARRIDGYKSVVNSYYDLATDLYEYGWSQSFHFSRFYKGEAFAQSIARHEHYLAYRMGIKPGSRVLDVGCGVGGPAREITEFTGCNLVGLNNNDYQISRCNNYAVKRNLDKKQVFVKGDFMHMPFEDNTFDYVYAIEATVHAPSLEGVYGEIFRVLKPGGVFGVYEWVMSDDYDSSIPKHREIAYNIEVGDGIPQMVRKCDAVEAIKKVGFNLLEEDDLTDHDNPDLPWYYPLTGDITKCQNIWDVFTVFRTSRLGKLVTRYSVQFLEKIGVAAKGTSKVGDTLAIAQKGLIEGGETHLFTPMFLMIAKKPETDA,soluble
19,MSLDREKANKNLLKILEAINGNSLVLFKSFEDLDSFYKYLKREITKTNIKNKNIHVYEQGMDGKEAKELKERFEKIGGILLATGRFAEGVDIPGEALVGVVIDSLPFPVPTPLILREQKILEERFKIRGVRDAHWRAFLMTSFDRMARTLVQMIGRLIRTENDYGVVVIQDKRFADWVGRVMREKGEGHHHHHH,soluble
